Measurements: publication PMC12416549 (2024)
Positions count from the first letter of the chain named. Names may count otherwise.

B1: E54P (designed binder)
chain: SMEEEVEKAAKEYEKKKKEAIEKHLEKLKAKDKEAAERFLKELEEAAKEYAKDPAKTMSEEEAKRRAKKYKEKVLLSELSEEEQKEIKEAEEKLVRTILKYVEEAAK
B2: K52F (designed binder)
chain: B1 chain with K52F, P54E
B3: K71L (designed binder)
chain: B1 chain with P54E, K71L
B4: E26G (designed binder)
chain: B1 chain with E26G, P54E
B5: V102D (designed binder)
chain: B1 chain with P54E, V102D
B6: K18V (designed binder)
chain: B1 chain with K18V, P54E
B7: K69M (designed binder)
chain: B1 chain with P54E, K69M
B8: K8Y (designed binder)
chain: B1 chain with K8Y, P54E
B9: E37F (designed binder)
chain: B1 chain with E37F, P54E
B10: E12N (designed binder)
chain: B1 chain with E12N, P54E
B11: Q84Y (designed binder)
chain: B1 chain with P54E, Q84Y
B12: A9P (designed binder)
chain: B1 chain with A9P, P54E
B13: E45Y (designed binder)
chain: B1 chain with E45Y, P54E
B14: K52T (designed binder)
chain: B1 chain with K52T, P54E
B15: L25Y (designed binder)
chain: B1 chain with L25Y, P54E
B16: D32S (designed binder)
chain: B1 chain with D32S, P54E
B17: K73V (designed binder)
chain: B1 chain with P54E, K73V
B18: K88A (designed binder)
chain: B1 chain with P54E, K88A
B19: L99K (designed binder)
chain: B1 chain with P54E, L99K
B20: E54R (designed binder)
chain: B1 chain with P54R
B21: A63D (designed binder)
chain: B1 chain with P54E, A63D
B22: K107I (designed binder)
chain: B1 chain with P54E, K107I
B23: E54L (designed binder)
chain: B1 chain with P54L
B24: I21D (designed binder)
chain: B1 chain with I21D, P54E
B25: A90F (designed binder)
chain: B1 chain with P54E, A90F
B26: E83V (designed binder)
chain: B1 chain with P54E, E83V
B27: E34K (designed binder)
chain: B1 chain with E34K, P54E
B28: K29A (designed binder)
chain: B1 chain with K29A, P54E
B29: A47I (designed binder)
chain: B1 chain with A47I, P54E
B30: Y70A (designed binder)
chain: B1 chain with P54E, Y70A
B31: L28S (designed binder)
chain: B1 chain with L28S, P54E
B32: A90D (designed binder)
chain: B1 chain with P54E, A90D
B33: E89K (designed binder)
chain: B1 chain with P54E, E89K
B34: A51N (designed binder)
chain: B1 chain with A51N, P54E
B35: A20Q (designed binder)
chain: B1 chain with A20Q, P54E
B36: E26I (designed binder)
chain: B1 chain with E26I, P54E
B37: E19M (designed binder)
chain: B1 chain with E19M, P54E
B38: E49S (designed binder)
chain: B1 chain with E49S, P54E
B39: A63N (designed binder)
chain: B1 chain with P54E, A63N
B40: I87P (designed binder)
chain: B1 chain with P54E, I87P
B41: E12I (designed binder)
chain: B1 chain with E12I, P54E
B42: A30Q (designed binder)
chain: B1 chain with A30Q, P54E
B43: A105I (designed binder)
chain: B1 chain with P54E, A105I
B44: Y50T (designed binder)
chain: B1 chain with Y50T, P54E
B45: E78P (designed binder)
chain: B1 chain with P54E, E78P
B46: A30K (designed binder)
chain: B1 chain with A30K, P54E
B47: E5F (designed binder)
chain: B1 chain with E5F, P54E
B48: K69H (designed binder)
chain: B1 chain with P54E, K69H
B49: E7G (designed binder)
chain: B1 chain with E7G, P54E
B50: Y101V (designed binder)
chain: B1 chain with P54E, Y101V
B51: A20S (designed binder)
chain: B1 chain with A20S, P54E
B52: I87T (designed binder)
chain: B1 chain with P54E, I87T
B53: K68Q (designed binder)
chain: B1 chain with P54E, K68Q
B54: K27R (designed binder)
chain: B1 chain with K27R, P54E
B55: K107L (designed binder)
chain: B1 chain with P54E, K107L

Molecular target: T1, TNFR1 (Homo sapiens, UniProt P19438)
T1 chain: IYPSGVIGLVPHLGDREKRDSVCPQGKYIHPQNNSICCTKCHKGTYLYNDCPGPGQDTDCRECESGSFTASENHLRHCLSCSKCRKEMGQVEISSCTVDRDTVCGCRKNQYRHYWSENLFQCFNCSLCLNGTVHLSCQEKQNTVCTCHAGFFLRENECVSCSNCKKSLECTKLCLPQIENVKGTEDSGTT
Test: yeast display SC50

| Binder | apparent Kd (screen) |
| --- | --- |
| B1 | 7.07 nM |
| B2 | 1.05 nM |
| B3 | 0.653 nM |
| B4 | 0.593 nM |
| B5 | 0.539 nM |
| B6 | 1.27 nM |
| B7 | 0.49 nM |
| B8 | 0.956 nM |
| B9 | 0.49 nM |
| B10 | 1.16 nM |
| B11 | 13.8 nM |
| B12 | 13.8 nM |
| B13 | 2.73 nM |
| B14 | 0.446 nM |
| B15 | 0.446 nM |
| B16 | 0.446 nM |
| B17 | 10.4 nM |
| B18 | 0.405 nM |
| B19 | 7.78 nM |
| B20 | 18.3 nM |
| B21 | 10.4 nM |
| B22 | 1.86 nM |
| B23 | 4.39 nM |
| B24 | 10.4 nM |
| B25 | 0.49 nM |
| B26 | 0.446 nM |
| B27 | 0.539 nM |
| B28 | 0.446 nM |

| Binder | apparent Kd (screen) |
| --- | --- |
| B29 | 0.49 nM |
| B30 | 4.83 nM |
| B31 | 0.49 nM |
| B32 | 0.446 nM |
| B33 | 2.73 nM |
| B34 | 12.5 nM |
| B35 | 1.69 nM |
| B36 | 1.16 nM |
| B37 | 0.446 nM |
| B38 | 1.27 nM |
| B39 | 6.43 nM |
| B40 | 22.2 nM |
| B41 | 1.05 nM |
| B42 | 0.593 nM |
| B43 | 1.69 nM |
| B44 | 1.16 nM |
| B45 | 2.73 nM |
| B46 | 0.956 nM |
| B47 | 1.05 nM |
| B48 | 0.49 nM |
| B49 | 3 nM |
| B50 | 0.446 nM |
| B51 | 0.446 nM |
| B52 | 12.5 nM |
| B53 | 0.653 nM |
| B54 | 0.869 nM |
| B55 | 2.73 nM |
